Laboratory results reported in patent US7118737.

Molecular target: CCR5 (UniProt P51681)
Test: cell-based or functional assay

UniProt P51681, sequence (P51681 whole entry): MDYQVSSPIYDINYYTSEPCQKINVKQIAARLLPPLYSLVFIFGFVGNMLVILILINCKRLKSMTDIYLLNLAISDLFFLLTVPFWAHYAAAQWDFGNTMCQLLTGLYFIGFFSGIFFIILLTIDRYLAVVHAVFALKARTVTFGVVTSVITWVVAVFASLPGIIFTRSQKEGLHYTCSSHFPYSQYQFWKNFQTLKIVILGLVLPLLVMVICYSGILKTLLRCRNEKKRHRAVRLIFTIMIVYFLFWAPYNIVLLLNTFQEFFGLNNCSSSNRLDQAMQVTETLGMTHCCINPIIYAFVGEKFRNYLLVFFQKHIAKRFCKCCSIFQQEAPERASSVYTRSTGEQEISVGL

Substance	EC50, inhibition of HeLa P4-CCR5/HeLa-Env-ADA cell fusion (β-galactosidase reporter) [nM]
AOP-RANTES (2-68) (from UniProt P13501 25-91) (ligand)	1.81
NNY-RANTES (2-68) (from UniProt P13501 25-91) (ligand)	0.323
